Laboratory results: patent publication US12643935B2, “PD-L1 binding peptides” (UNIVERSITY OF SOUTHERN CALIFORNIA, priority 2020, dated 2026)
Where no end group is shown, it is not given here. [ ]: non-standard residue; d: D form. Pra = C#CC[C@H](N)C(=O)O

Tests used:
Format in all cases: cell-based
[1] = molecular target: T1, hPD-L1 expressed on the surface of Chinese hamster ovary (CHO) cells (CHO-hPD-L1) (Homo sapiens, UniProt Q9NZQ7); experiment: Antibody titration by flow cytometry on CHO-hPD-L1 cells; settings: 4° C., read-out: KD of Fluorescein-labeled antibody on CHO-hPD-L1
T1 construct: expressed in transfected cells; host or cells: CHO
Text: (§1) To do this, we measured SPAM peptide inhibition of anti-PD-L1 antibody binding to hPD-L1 expressed on the surface of Chinese hamster ovary (CHO) cells (CHO-hPD-L1). […] Cells were washed again and analyzed by flow cytometry (FIG. 5B-C).

[2] = molecular target: T2, CHO-mPD-L1 cells which express mPD-L1 (Mus musculus, UniProt Q9EP73); experiment: Antibody competition by flow cytometry on CHO-mPD-L1 cells; settings: pre-treatment 0-20 μM, 50 nM antibody
T2 construct: expressed in transfected cells; host or cells: CHO
Procedure: We performed similar experiments with CHO-mPD-L1 cells which express mPD-L1 to determine if this effect was specific to hPD-L1 expression. We have developed two cross-reactive anti-hPD-L1/mPD-L1 antibodies, 16373 and 16377. These antibodies were labeled with Fluorescein, titrated against CHO-hPD-L1 and CHO-mPD-L1 cells (FIG. 12B-C) and subjected to competition experiments as described above.
The cells were washed once with cold serum free DMEM and incubated with 1 nM FAM-Atezolizumab, 10 nM FAM-Avelumab, 50 nM FAM-16373, or 50 nM FAM-16377 in serum free DMEM at 4° C. for 30 min. Cells were then washed three times with cold serum free DMEM. Cells were subsequently processed by flow cytometry with a BD FACSCalibur system using the FL1 channel. FlowJo v10.1 was used to gate to the major population and median FL1 fluorescence reported.

[3] = molecular target: T1, hPD-L1 expressed on the surface of Chinese hamster ovary (CHO) cells (CHO-hPD-L1); experiment: Antibody competition by flow cytometry on CHO-hPD-L1 cells; settings: pre-incubation 30 min 4° C., 0-20 μM; SPAM effect at 20 μM; 1 nM Atezolizumab, 10 nM Avelumab
Text: as §1
Cells were then washed three times with cold serum free DMEM. Cells were subsequently processed by flow cytometry with a BD FACSCalibur system using the FL1 channel. FlowJo v10.1 was used to gate to the major population and median FL1 fluorescence reported.

T1 sequence (Q9NZQ7 19-290): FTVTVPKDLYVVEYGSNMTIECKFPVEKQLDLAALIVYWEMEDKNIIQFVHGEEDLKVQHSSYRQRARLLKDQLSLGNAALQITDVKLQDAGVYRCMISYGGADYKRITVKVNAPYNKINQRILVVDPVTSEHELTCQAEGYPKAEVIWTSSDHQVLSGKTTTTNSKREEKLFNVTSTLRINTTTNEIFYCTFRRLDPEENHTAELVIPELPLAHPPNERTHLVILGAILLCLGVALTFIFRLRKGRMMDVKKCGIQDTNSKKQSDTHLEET
T2 sequence (Q9EP73 19-290): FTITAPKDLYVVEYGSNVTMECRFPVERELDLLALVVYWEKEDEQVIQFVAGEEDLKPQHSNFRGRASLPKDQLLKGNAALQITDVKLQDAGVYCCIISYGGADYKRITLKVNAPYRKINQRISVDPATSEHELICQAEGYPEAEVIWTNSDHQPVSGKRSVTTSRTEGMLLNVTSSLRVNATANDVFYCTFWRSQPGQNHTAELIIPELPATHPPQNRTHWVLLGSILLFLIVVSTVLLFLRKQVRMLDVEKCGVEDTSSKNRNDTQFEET

Atezolizumab: hPD-L1 specific monoclonal antibody
Kd [1]: 0.2 nM

Cyclo[(AcTyr)(NMeAla)NPHL(Hyp)WS(Trp(Me))(NMeNle) (NMeNle)(Orn)C]-Gly-NH2 (XXNPHLXWSXXXXCG; N-methyl; non-natural residues; cyclised or stapled) [WL-12]
blocking of Fluorescein-16373 and Fluorescein-16377 in CHO-mPD-L1 cells [2]: blocking was absent

YKLNLIHPHIFLMDWIFASG-Pra (YKLNLIHPHIFLMDWIFASG[Pra]-NH2; N-terminus assumed; SMILES C#CC[C@H](NC(=O)CNC(=O)[C@H](CO)NC(=O)[C@H](C)NC(=O)[C@H](Cc1ccccc1)NC(=O)[C@@H](NC(=O)[C@H](Cc1c[nH]c2ccccc12)NC(=O)[C@H](CC(=O)O)NC(=O)[C@H](CCSC)NC(=O)[C@H](CC(C)C)NC(=O)[C@H](Cc1ccccc1)NC(=O)[C@@H](NC(=O)[C@H](Cc1c[nH]cn1)NC(=O)[C@@H]1CCCN1C(=O)[C@H](Cc1c[nH]cn1)NC(=O)[C@@H](NC(=O)[C@H](CC(C)C)NC(=O)[C@H](CC(N)=O)NC(=O)[C@H](CC(C)C)NC(=O)[C@H](CCCCN)NC(=O)[C@@H](N)Cc1ccc(O)cc1)[C@@H](C)CC)[C@@H](C)CC)[C@@H](C)CC)C(N)=O) [SPAM-scramble, control scrambled peptide, reference compound]
Fluorescein-Atezolizumab and Fluorescein-Avelumab binding to CHO-hPD-L1 after pre-incubation [3]: not observed
